Substitutions are numbered along the chain they refer to.
B1: 4-Met substituted E. coli Cir (colicin Ia receptor), the paper's wildtype (WT) Cir (receptor)
chain: VDDDGETMVVTASSVEQNLKDAPASISVITQEDLQRKPVQNLKDVLKEVPGVQLTNEGDNRKGVSIRGLDSSYTLILVDGKRVNSRNAVFRHNDFDLNWIPVDSIERIEVVRGPMSSLYGSDALGGVVNIITKKIGQKWSGTVTVDTTIQEHRDRGDTYNGQFFTSGPLIDGVLGMKAYGSLAKREKDDPQNSTTTDTGETPRIEGFSSRDGNVEFAWTPNQNHDFTAGYGFDRQDRDSDSLDKNRLERQNYSVSHNGRWDYGTSELKYYGEKVENKNPGNSSPITSESNTVDGKYTLPLTAINQFLTVGGEMRHDKMSDAVNLTGGTSSKTSASQYALFVEDEWRIFEPLALTTGVRMDDHETYGEHWSPRAYLVYNATDTVTVKGGWATAFKAPSLLQLSPDWTSNSCRGACKIVGSPDLKPETSESWELGLYYMGEEGWLEGVESSVTVFRNDVKDRISISRTSDVNAAPGYQNFVGFETGANGRRIPVFSYYNVNKARIQGVETELKIPFNDEWKLSINYTYNDGRDVSNGENKPLSDLPFHTANGTLDWKPLALEDWSMYMSGHYTGQKRADSATAKTPGGYTIWNTGAAWQVTKDVKLRAGVLNLGDKDLSRDDYSYNEDGRRYFMAVDYRF
B2: Microcin V (MccV), mature, wildtype (natural protein, E. coli, UniProt P22522 16-103, looked up)
chain: ASGRDIAMAIGTLSGQFVAGGIGAAAGGVAGGAIYDYASTHKPNPAMSPSGLGGTIKQKPEGIPSEAWNYAAGRLCNWSPNNLSDVCL
modifications: biotinylated (EZ-Link Sulfo-NHS-LC kit) for BLI and ELISA; not labelled for cryo-EM and SV-AUC
notes: Only residues 57-88 (mature numbering) were resolved in the map; also called WT MccV; Colicin V; source: E. coli BL21 (DE3), purified (HisTrap as His6-MBP fusion, TEV cleavage, second nickel column, flowthrough); not shown: His6, N-terminal, cleaved; MBP, N-terminal, cleaved

What was measured:
[1] = target: D85A and D85R (MccV mutants, as a group); assay: BLI; biotinylated MccV (100 nM) loaded on streptavidin SA-XT sensors, Cir in twofold dilutions 5 uM to 78 nM in PBS-T; 300 s association, 240 s dissociation; first 30 s of association and dissociation fit to a 1:1 global model
[2] = target: T1, 4-Met substituted E. coli Cir (colicin Ia receptor), the paper's wildtype (WT) Cir (E. coli, UniProt P17315 26-663, W338 mutated to methionine | L343 mutated to methionine | F589 mutated to …); assay: BLI + AUC; stoichiometry reported from the concurrence of BLI (1:1 model) and SV-AUC (single-site model); conditions: both partners purified
T1 construct: Cir (colicin Ia receptor, TonB-dependent transporter), E. coli, mature coding region of cirA with four residues changed to methionine (4-Met); No TEV cleavage of Cir is described; also called apo-Cir; His-tagged Cir; not shown: His10, N-terminal, kept
T1 sequence (looked up): B1 chain

[3] = target: T2, Cir R436E/R490E (in 4-Met Cir) (E. coli, UniProt P17315 26-663, W338 mutated to methionine | L343 mutated to methionine | F589 mutated to …); assay: BLI
T2 sequence: B1 chain with R411E, R465E

Cir C435A (in 4-Met Cir) = target: T3, Cir C435A (in 4-Met Cir) (E. coli, UniProt P17315 26-663, W338 mutated to methionine | L343 mutated to methionine | F589 mutated to …); assay: BLI
T3 sequence: B1 chain with C410A

[4] = target: T4, Cir TonB Box mutant M33C/V35P (in 4-Met Cir) (E. coli, UniProt P17315 26-663, W338 mutated to methionine | L343 mutated to methionine | F589 mutated to …); assay: BLI
T4 sequence: B1 chain with M8C, V10P

[5] = target: T1, 4-Met substituted E. coli Cir (colicin …); assay: AUC; sedimentation velocity, NAPol-solubilised Cir and its mixtures with MccV in phosphate-buffered saline, 50,000 rpm, 20 C; single-site model; conditions: both partners purified
[6] = target: T1, 4-Met substituted E. coli Cir (colicin …); assay: BLI; biotinylated MccV (100 nM) loaded on streptavidin SA-XT sensors, Cir in twofold dilutions 5 uM to 78 nM in PBS-T; 300 s association, 240 s dissociation; first 30 s of association and dissociation fit to a 1:1 global model; conditions: both partners purified
[7] = target: T1, 4-Met substituted E. coli Cir (colicin …); assay: BLI; biotinylated MccV (100 nM) on streptavidin sensors, WT Cir 5 uM to 78 nM in PBS-T; steady state equilibrium, 1:1 binding model; incomplete equilibrium during the association phase; conditions: both partners purified

Row | Binder | percent reduction in response shift relative to WT at 5 μM probe [1] [%] | stoichiometry N [2] | Kd [3] [nM] | Kd (Cir C435A (in 4-Met Cir)) [nM] | Kd [4] [nM] | Kd [5] [nM] | Kd [6] [nM] | Kd [7] [nM]
1 | B1 | 40 to 45 |  |  |  |  |  |  | 
2 | B2 |  | 1 | 1580 | 552 | 374 | 600 ± 200 | 155 ± 30 | 1700 ± 1200
